Each block holds one binder with its values, some of them ahead of it.
Legend:
recombinant human GRP94 [1] = molecular target: T1, recombinant human GRP94 (human, UniProt P14625 22-799, limits assumed); assay: ELISA, 100 ng rhGRP94 coated per well, IgG 0-500 nM; no unit beside the value, concentration axis in nM and the dotted drop line meets it at about 0.5
T1 construct: also called rhGRP94; glucose-regulated protein 94
Experimental: (§1) Each well of 96-well plates was coated with 0.1 μg of recombinant human GRP94 (rhGRP94), blocked with 3% (w/v) bovine serum albumin (BSA) in phosphate buffered saline (PBS) for 2 hours at 37° C., and incubated with 100 μL of GRP94 targeting IgG (20 μg/mL) for 2 hours at 37° C. The plates were washed thrice with 0.05% PBS-T, and 100 μL of a 500:1 dilution of the secondary antibody anti-human Fc Ab (Sigma-Aldrich) was added to each well. Incubation at 37° C. for 1 hour was followed by three rounds of washing with 0.05% PBS-T. Then, 100 μL of 3,3′,5,5′-tetramethylbenzidine (1-step ultra TMB) substrate solution was added to each well. Finally, optical densities were measured at 450 nm using a microplate reader (Synergy H1, BioTek).
(§2) In this regard, each well of 96-well plates was coated with 100 ng of rhGRP94 and blocked with 3% (w/v) bovine serum albumin (BSA) in PBS at 37° C. for 2 hours. Next, the plates were incubated with a concentration gradient of 0 nM to 500 nM of each clone for the GRP94 IgGs at 37° C. for 2 hours. The use of a secondary antibody and the measurement of optical density were conducted as described for the ELISA.

recombinant human GRP94 [2] = molecular target: T1, recombinant human GRP94; assay: ELISA, 100 ng rhGRP94 coated per well, IgG 0-500 nM; no unit beside the value, concentration axis in nM and the dotted drop line meets it at about 0.1
Experimental: as §1, §2

recombinant human GRP94 [3] = molecular target: T1, recombinant human GRP94; assay: ELISA, 100 ng rhGRP94 coated per well, IgG 0-500 nM; no unit beside the value, concentration axis in nM and the dotted drop line meets it at about 1.2
Experimental: as §1, §2

recombinant human GRP94 [4] = molecular target: T1, recombinant human GRP94; assay: ELISA, 100 ng rhGRP94 coated per well, IgG 0-500 nM; no unit beside the value, concentration axis in nM and the dotted drop line meets it at about 0.15
Experimental: as §1, §2

T1 sequence (P14625 22-799 limits assumed): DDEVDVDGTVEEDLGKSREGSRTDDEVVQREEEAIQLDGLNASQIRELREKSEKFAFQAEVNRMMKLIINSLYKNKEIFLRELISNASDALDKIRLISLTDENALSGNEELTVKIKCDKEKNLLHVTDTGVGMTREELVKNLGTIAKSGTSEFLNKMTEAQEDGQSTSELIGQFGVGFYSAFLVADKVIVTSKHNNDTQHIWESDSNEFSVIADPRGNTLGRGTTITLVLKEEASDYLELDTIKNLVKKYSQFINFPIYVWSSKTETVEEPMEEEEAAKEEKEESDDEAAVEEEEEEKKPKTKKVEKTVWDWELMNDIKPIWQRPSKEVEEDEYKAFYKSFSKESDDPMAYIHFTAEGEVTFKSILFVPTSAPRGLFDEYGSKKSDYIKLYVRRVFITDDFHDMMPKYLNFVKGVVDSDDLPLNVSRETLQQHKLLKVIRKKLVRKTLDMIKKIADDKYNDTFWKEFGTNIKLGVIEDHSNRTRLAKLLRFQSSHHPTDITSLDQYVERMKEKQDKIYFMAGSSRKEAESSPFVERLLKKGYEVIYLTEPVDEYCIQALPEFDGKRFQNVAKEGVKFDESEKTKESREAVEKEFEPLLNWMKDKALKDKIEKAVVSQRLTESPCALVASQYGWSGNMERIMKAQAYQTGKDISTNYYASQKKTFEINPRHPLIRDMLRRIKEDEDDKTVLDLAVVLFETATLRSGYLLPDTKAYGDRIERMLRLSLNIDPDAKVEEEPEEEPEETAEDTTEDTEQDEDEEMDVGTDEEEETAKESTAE

B1: anti-GRP94 human IgG antibody B5 (antibody, V domains shown)
VH: EVQLLESGGGLVQPGGSLRLSCAASGFTFSNYYMSWVRQAPGKGLEWVSGIYPNSGSTYYADSVKGRFTISRDNSKNTLYLQMNSLRAEDTAVYYCARDPLHPARFPFDYWGQGTLVTVSS
VL: QSVLTQPPSASGTPGQRVTISCTGSSSNIGNNAVSWYQQLPGTAPKLLIYADSHRPSGVPDRFSGSKSGTSASLAISGLRSEDEADYYCGAWDASLNAYVFGGGTKLTVL
notes: Tested as whole human IgG made from the selected scFv's VH and VL genes in pcDNA3.1 / Expi293 cells; also called GRP94 IgG B5
Kd (recombinant human GRP94 [1]): 0.467 nM

B4: anti-GRP94 human IgG antibody 2H5 (antibody, V domains shown)
VH: EVQLLESGGGLVQPGGSLRLSCAASGFTFSGYAMSWVRQAPGKGLEWVSAISHGGSSKYYADSVKGRFTISRDNSKNTLYLQMNSLRAEDTAVYYCAKDLLSPLQSIGSYDDAMDVWGQGTLVTVSS
VL: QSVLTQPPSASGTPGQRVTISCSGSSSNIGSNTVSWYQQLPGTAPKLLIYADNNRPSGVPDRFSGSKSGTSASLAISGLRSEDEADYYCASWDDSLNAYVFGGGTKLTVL
notes: Tested as whole human IgG; also called GRP94 IgG 2H5
Kd (recombinant human GRP94 [4]): 0.142 nM

Results, then the binder that gave them:

Kd (recombinant human GRP94 [2]): 0.0997 nM
B2: anti-GRP94 human IgG antibody E5 (antibody, V domains shown)
VH: EVQLLESGGGLVQPGGSLRLSCAASGFTFSNYAMSWVRQAPGKGLEWVSGISSSSGSTYYADSVKGRFTTSRDNSKNTLYLQMNSLRAEDTAVYYCARDRHPFSPNWFDYWGQGTLVTVSS
VL: QSVLTQPPSASGTPGQRVTISCSGSPSNIGSNTVTWYQQLPGTAPKLLIYADSHRPSGVPDRFSGSKSGTSASLAISGLRSEDEADYYCASWDDSLNGYVFGGGTKLTVL
notes: Tested as whole human IgG; also called GRP94 IgG E5

Kd (recombinant human GRP94 [3]): 1.21 nM
B3: anti-GRP94 human IgG antibody 3G7 (antibody, V domains shown)
VH: EVQLLESGGGLVQPGGSLRLSCAASGFTFSNYSMSWVRQAPGKGLEWVSGIYYGSGNKYYADSVKGRFTISRDNSKNTLYLQMNSLRAEDTAVYYCAKNLASFDYWGQGTLVTVSS
VL: QSVLTQPPSASGTPGQRVTISCSGSSSNIGSNSVNWYQQLPGTAPKLLIYSNSHRPSGVPDRFSGSKSGTSASLAISGLRSEDEADYYCGTWDSSLSGYVFGGGTKLTVL
notes: Tested as whole human IgG; also called GRP94 IgG 3G7
